Reference: patent US20030100489A1 (COLD SPRING HARBOR LABORATORY, published 2003)
One block for each binder: values may come before it.

Tests used:
[1] = biological target: T1, GAL4db-cdc2 fusion (UniProt P04386 1-147; P06493 1-297, limits assumed); assay: yeast two-hybrid (HIS3 growth and beta-galactosidase) in YPB2
T1 construct: Two-hybrid construct; also called GALAdb fusion construct containing cdc2
Description: (§1) Transformed cells were plated with and without histidine.
(§2) After growing cells in medium selective for both plasmids (minus tryptophan and minus leucine), two colonies were picked randomly and were streaked in plates that either contained or lacked histidine.

[2] = biological target: T2, GAL4db-CDK2 fusion (UniProt P04386 1-147; P24941 1-298, limits assumed); assay: as above
T2 construct: Two-hybrid construct; also called GALAdb fusion construct containing CDK2
Description: as §1, §2

[3] = biological target: T3, GAL4db-CDK5 fusion (UniProt P04386 1-147; Q00535 1-292, limits assumed); assay: as above
T3 construct: Two-hybrid construct; also called GALAdb fusion construct containing CDK5
Description: as §1, §2

[4] = biological target: T4, GAL4db-PCNA fusion (UniProt P04386 1-147; P12004 1-261, limits assumed); assay: as above
T4 construct: Two-hybrid construct; also called GALAdb fusion construct containing PCNA
Description: as §1, §2

[5] = biological target: T5, CDK4 Arg24-Cys mutant (Homo sapiens (Human), UniProt P11802 1-303); assay: immunoprecipitation from mixed Sf9 lysates
T5 construct: Found in cells from a melanoma patient; also called mutant CDK4; Arg→Cys mutant of CDK4
T5 sequence (P11802 whole entry R24C): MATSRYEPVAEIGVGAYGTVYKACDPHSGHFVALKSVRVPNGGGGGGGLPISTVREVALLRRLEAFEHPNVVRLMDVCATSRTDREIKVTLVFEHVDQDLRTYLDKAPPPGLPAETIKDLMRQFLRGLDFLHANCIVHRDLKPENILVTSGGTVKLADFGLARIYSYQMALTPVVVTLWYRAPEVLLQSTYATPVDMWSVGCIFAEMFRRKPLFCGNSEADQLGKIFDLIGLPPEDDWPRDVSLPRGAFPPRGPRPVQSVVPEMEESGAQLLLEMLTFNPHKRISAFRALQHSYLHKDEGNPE

[6] = biological target: T6, cdc2 (human, UniProt P06493 1-297); assay: anti-CDC2 immunoprecipitation from TGF-β arrested human keratinocytes
T6 construct: Untagged: 35S-labelled in vitro translated, or endogenous in HaCaT human keratinocytes; also called CDK1
T6 sequence (P06493 whole entry): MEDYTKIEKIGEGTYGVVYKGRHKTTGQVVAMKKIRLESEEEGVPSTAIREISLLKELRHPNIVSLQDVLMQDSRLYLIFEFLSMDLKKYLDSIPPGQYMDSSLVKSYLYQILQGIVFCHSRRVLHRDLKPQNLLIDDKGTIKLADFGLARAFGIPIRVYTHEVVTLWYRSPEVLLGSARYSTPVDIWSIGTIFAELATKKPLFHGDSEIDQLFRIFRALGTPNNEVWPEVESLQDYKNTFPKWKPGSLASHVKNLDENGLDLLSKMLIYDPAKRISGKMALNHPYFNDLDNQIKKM

[7] = biological target: CDK2 (human, UniProt P24941 1-298); assay: anti-CDK2 immunoprecipitation from TGF-β arrested human keratinocytes

binding result [1]: no binding | binding result [2]: no binding | binding result [3]: no binding | binding result [4]: no binding
B1: GAL4ad-p16 fusion (other, not shown: large carriers)
chain: MEPAAGSSMEPSADWLATAAARGRVEEVRALLEAGALPNAPNSYGRRPIQVMMMGSARVAELLLLHGAEPNCADPATLTRPVHDAAREGFLDTLVVLHRAGARLDVRDAWGRLPVDLAEELGHRDVARYLRAAAGGTRGSNHARIDAAEGPSDIPD
notes: Two-hybrid construct in yeast YPB2; also called GALAad-p16

binding result [5]: no binding
B2: p16 (other)
chain: B1 chain
notes: also called human p16

binding result [5]: no binding | binding result [6]: no binding | binding result [7]: no binding
B3: p15 (other)
chain: MREENKGMPSGGGSDEGLATPARGLVEKVRHSWEAGADPNGVNRFGRRAIQVMMMGSARVAELLLLHGAEPNCADPATLTRPVHDAAREGFLDTLVVLHRAGARLDVRDAWGRLPVDLAEERGHRDVAGYLRTATGD
notes: Untagged p15: endogenous in HaCaT human keratinocytes or overexpressed in Sf9 cells (lysate); also called human p15; protein of approx. 15 kDa
